Measured values published in US20200031893.

What was measured:
[1] = tested on: proNGF mutant SP174-101 (protease cleavage site mutated to VSAR)
[2] = tested on: human wild-type proNGF
Chain of human wild-type proNGF (chain, as listed by the source): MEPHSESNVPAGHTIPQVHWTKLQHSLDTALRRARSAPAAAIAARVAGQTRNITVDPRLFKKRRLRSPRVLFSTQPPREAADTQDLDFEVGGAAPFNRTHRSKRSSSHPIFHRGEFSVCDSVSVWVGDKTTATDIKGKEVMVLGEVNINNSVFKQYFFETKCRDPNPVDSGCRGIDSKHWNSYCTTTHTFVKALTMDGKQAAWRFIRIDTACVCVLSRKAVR

Chain of proNGF mutant SP174-101 (protease cleavage site mutated to VSAR) (chain, as listed by the source mutant): as the sequence (chain, as listed by the source) above, with R101V, K103A counted along it

Trypsin (Roche, GMP grade)
% ProNGF remaining after tryptic digestion, Trypsin/ProNGF ratio 1/10000 (HPLC-UV) [1]: 1.9% | % betaNGF (cleavage yield) after tryptic digestion, Trypsin/ProNGF ratio 1/10000 (HPLC-UV) [1]: 84.5% | tryptic digestion, trypsin:proNGF 1:10,000 (w/w), 18 h, room temperature, SDS-PAGE [1]: A complete digestion of proNGF mutant to beta-NGF could be observed | % ProNGF remaining after tryptic digestion, Trypsin/ProNGF ratio 1/250 (HPLC-UV) [2]: 0% | % ProNGF remaining after tryptic digestion, Trypsin/ProNGF ratio 1/1000 (HPLC-UV) [2]: 0% | % ProNGF remaining after tryptic digestion, Trypsin/ProNGF ratio 1/5000 (HPLC-UV) [2]: 21.5% | % ProNGF remaining after tryptic digestion, Trypsin/ProNGF ratio 1/10000 (HPLC-UV) [2]: 67.1% | % betaNGF (cleavage yield) after tryptic digestion, Trypsin/ProNGF ratio 1/250 (HPLC-UV) [2]: 67.9% | % betaNGF (cleavage yield) after tryptic digestion, Trypsin/ProNGF ratio 1/1000 (HPLC-UV) [2]: 77.9% | % betaNGF (cleavage yield) after tryptic digestion, Trypsin/ProNGF ratio 1/5000 (HPLC-UV) [2]: 18.6% | % betaNGF (cleavage yield) after tryptic digestion, Trypsin/ProNGF ratio 1/10000 (HPLC-UV) [2]: 4.6% | % betaNGF Overdigested Forms after tryptic digestion, Trypsin/ProNGF ratio 1/250 (HPLC-UV) [2]: 25.7% | % betaNGF Overdigested Forms after tryptic digestion, Trypsin/ProNGF ratio 1/1000 (HPLC-UV) [2]: 12.9% | % betaNGF Overdigested Forms after tryptic digestion, Trypsin/ProNGF ratio 1/5000 (HPLC-UV) [2]: 6.6%
